The values that follow are results of earlier work, collected in PMC6753945.

Broadly, the Kd is a measure of binding affinity in units of concentration.

The data set deals with CD28 (Homo sapiens) (UniProt P10747).

Consider CD80 (from UniProt P33681), for which the Kd is 200 nM.
